Changes are numbered by the printed parent chain. In names and notes the source's numbering stands.
B1: target 1 A1U,U3G (mixed)
RNA 1: CACCCGUGCAAAAAUGCAGGGGUCUAAAACUGAGCGGAUAACCUCUCUAUGG
RNA 2: GGGAAUGGAUCCACAUCUACGAAUUCGUACCAUAGAGAGGUUAUCCGCGCUCCGAGAUCGGAAGAGCACACGU
B2: target 1 insU 3' of 17,insA 3' of 6 (mixed)
RNA 1: B1 RNA 1
RNA 2: GGGAAUGGAUCCACAUCUACGAAUUCGUACCAUAGUAGAGGUUAUCCAGCUCACCGAGAUCGGAAGAGCACACGU
B3: target 1 insG 3' of 8,insA 3' of 2 (mixed)
RNA 1: B1 RNA 1
RNA 2: GGGAAUGGAUCCACAUCUACGAAUUCGUACCAUAGAGAGGUUAUGCCGCUCAACCGAGAUCGGAAGAGCACACGU
B4: target 1 insA 3' of 17,insU 3' of 7 (mixed)
RNA 1: B1 RNA 1
RNA 2: B2 RNA 2 with U36A, C47U, A48C
B5: target 1 insU 3' of 17,insA 3' of 15 (mixed)
RNA 1: B1 RNA 1
RNA 2: B2 RNA 2 with G40A, U42G, A44U, U45A, C46U, A48C
B6: target 1 insG 3' of 21,insG 3' of 4 (mixed)
RNA 1: B1 RNA 1
RNA 2: B2 RNA 2 with A32G, U33A, A34U, G35A, U36G, A48G, G49C, C50G
B7: target 1 A9G,G17U (mixed)
RNA 1: B1 RNA 1
RNA 2: B1 RNA 2 with G35U, A43G, G49U, U51A
B8: target 1 insU 3' of 18,insC 3' of 3 (mixed)
RNA 1: B1 RNA 1
RNA 2: B2 RNA 2 with G35U, U36G, A48G, G49C, C50U, U51C
B9: target 1 G12U,G15U (mixed)
RNA 1: B1 RNA 1
RNA 2: B1 RNA 2 with G37U, G40U, G49U, U51A
B10: target 1 A1G,U3G (mixed)
RNA 1: B1 RNA 1
RNA 2: B1 RNA 2 with U51G
B11: target 1 U3A,C4U (mixed)
RNA 1: B1 RNA 1
RNA 2: B1 RNA 2 with C48U, G49A, U51A
B12: target 1 U3G (mixed)
RNA 1: B1 RNA 1
RNA 2: B1 RNA 2 with U51A
B13: target 1 A1C,U3G (mixed)
RNA 1: B1 RNA 1
RNA 2: B1 RNA 2 with U51C
B14: target 1 insA 3' of 11,insA 3' of 11 (mixed)
RNA 1: B1 RNA 1
RNA 2: B3 RNA 2 with U42A, G45A, C46U, G48C, C49G, U50C, C51U, A52C
B15: target 1 U11G,C22U (mixed)
RNA 1: B1 RNA 1
RNA 2: B1 RNA 2 with C30U, U41G, G49U, U51A
B16: target 1 del9,del18 (mixed)
RNA 1: B1 RNA 1
RNA 2: GGGAAUGGAUCCACAUCUACGAAUUCGUACCAUGAGAGGUUUCCGCUCACCGAGAUCGGAAGAGCACACGU
B17: target 1 insG 3' of 18 (mixed)
RNA 1: B1 RNA 1
RNA 2: GGGAAUGGAUCCACAUCUACGAAUUCGUACCAUAGGAGAGGUUAUCCGCUCACCGAGAUCGGAAGAGCACACGU
B18: target 1 C6U,A18U (mixed)
RNA 1: B1 RNA 1
RNA 2: B1 RNA 2 with A34U, C46U, G49U, U51A
B19: target 1 insA 3' of 21,insA 3' of 7 (mixed)
RNA 1: B1 RNA 1
RNA 2: B2 RNA 2 with U33A, A34U, G35A, U36G, C47A, A48C
B20: target 1 insG 3' of 9,insA 3' of 3 (mixed)
RNA 1: B1 RNA 1
RNA 2: B3 RNA 2 with U44G, G45U, C51A, A52C
B21: target 1 insU 3' of 5,insU 3' of 4 (mixed)
RNA 1: B1 RNA 1
RNA 2: B3 RNA 2 with G45C, C47G, G48U, C51U, A52C
B22: target 1 G13A,U19A (mixed)
RNA 1: B1 RNA 1
RNA 2: B1 RNA 2 with U33A, G39A, G49U, U51A
B23: target 1 G17U,C21U (mixed)
RNA 1: B1 RNA 1
RNA 2: B1 RNA 2 with C31U, G35U, G49U, U51A
B24: target 1 insC 3' of 15,insA 3' of 12 (mixed)
RNA 1: B1 RNA 1
RNA 2: B2 RNA 2 with U36A, A37G, G38C, U42A, A44U, U45A, C46U, A48C
B25: target 1 G13U,C22U (mixed)
RNA 1: B1 RNA 1
RNA 2: B1 RNA 2 with C30U, G39U, G49U, U51A
B26: target 1 insA 3' of 19,insA 3' of 10 (mixed)
RNA 1: B1 RNA 1
RNA 2: B2 RNA 2 with G35A, U36G, U45A, C46U, A48C
B27: target 1 insG 3' of 18,insA 3' of 17 (mixed)
RNA 1: B1 RNA 1
RNA 2: B2 RNA 2 with U36G, G38A, A39G, G40A, U42G, A44U, U45A, C46U, A48C
B28: target 1 insC 3' of 9,insU 3' of 9 (mixed)
RNA 1: B1 RNA 1
RNA 2: B3 RNA 2 with U44C, G45U, C46U, G48C, C49G, U50C, C51U, A52C
B29: target 1 insA 3' of 22,insC 3' of 3 (mixed)
RNA 1: B1 RNA 1
RNA 2: GGGAAUGGAUCCACAUCUACGAAUUCGUACACAUAGAGAGGUUAUCCGCUCCACCGAGAUCGGAAGAGCACACGU
B30: target 1 C7U,G15C (mixed)
RNA 1: B1 RNA 1
RNA 2: B1 RNA 2 with G37C, C45U, G49U, U51A
B31: target 1 insA 3' of 17,insG 3' of 16 (mixed)
RNA 1: B1 RNA 1
RNA 2: B2 RNA 2 with U36A, A39G, G40A, U42G, A44U, U45A, C46U, A48C
B32: target 1 insU 3' of 22,insU 3' of 15 (mixed)
RNA 1: B1 RNA 1
RNA 2: GGGAAUGGAUCCACAUCUACGAAUUCGUACUCAUAGAGUAGGUUAUCCGCUCACCGAGAUCGGAAGAGCACACGU
B33: target 1 insC 3' of 22,insU 3' of 2 (mixed)
RNA 1: B1 RNA 1
RNA 2: B29 RNA 2 with A31C, C52U
B34: target 1 insA 3' of 4,insC 3' of 3 (mixed)
RNA 1: B1 RNA 1
RNA 2: B3 RNA 2 with G45C, C47G, G48C, C49A, A52C

Each binder was assayed against T1, EsCas13d, nuclease-dead (Eubacterium siraeum, UniProt B0MS50, R295A;H300A;R849A;H854A) (assay: crRNA (strand 1, pre-loaded); Mg2+; 40 mM Tris-HCl pH 7.5, 150 mM NaCl, 6 mM MgCl2, 1 mM DTT, 0.1% Tween-20, 0.2 mg/ml BSA; 25 C; 10 min per concentration, then washed). Conditions: tags: His6-TwinStrep-SUMO cleaved; N-terminal SNAP kept (SNAP-Surface 488); label: 3' end held by stalled T7 RNA polymerase.
T1 sequence: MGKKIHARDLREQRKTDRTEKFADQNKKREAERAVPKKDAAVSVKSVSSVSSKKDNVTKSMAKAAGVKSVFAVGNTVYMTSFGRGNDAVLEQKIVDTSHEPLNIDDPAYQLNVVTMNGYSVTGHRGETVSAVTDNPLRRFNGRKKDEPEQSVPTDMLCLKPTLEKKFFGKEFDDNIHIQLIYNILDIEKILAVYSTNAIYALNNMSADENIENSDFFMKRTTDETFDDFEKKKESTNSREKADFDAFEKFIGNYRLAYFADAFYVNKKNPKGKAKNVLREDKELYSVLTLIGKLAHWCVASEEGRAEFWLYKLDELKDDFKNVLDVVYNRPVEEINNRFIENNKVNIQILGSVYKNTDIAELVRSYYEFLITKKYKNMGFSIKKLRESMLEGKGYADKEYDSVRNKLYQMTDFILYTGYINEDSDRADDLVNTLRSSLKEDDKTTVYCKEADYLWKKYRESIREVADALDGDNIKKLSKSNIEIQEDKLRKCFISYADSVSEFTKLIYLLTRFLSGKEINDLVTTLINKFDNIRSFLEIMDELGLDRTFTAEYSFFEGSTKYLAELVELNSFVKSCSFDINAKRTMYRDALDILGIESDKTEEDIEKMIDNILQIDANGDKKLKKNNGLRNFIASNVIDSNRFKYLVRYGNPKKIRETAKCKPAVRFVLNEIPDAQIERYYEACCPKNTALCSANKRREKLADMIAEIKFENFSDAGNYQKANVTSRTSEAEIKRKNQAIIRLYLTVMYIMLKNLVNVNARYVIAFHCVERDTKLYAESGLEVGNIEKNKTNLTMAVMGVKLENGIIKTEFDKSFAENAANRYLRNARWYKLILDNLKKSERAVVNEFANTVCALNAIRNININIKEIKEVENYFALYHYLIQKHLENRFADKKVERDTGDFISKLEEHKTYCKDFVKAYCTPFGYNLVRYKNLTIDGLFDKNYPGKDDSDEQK
Work on B1 yielded a Kd of 8.1 ± 0.4 nM. B2 was tested, and the Kd was 45 ± 10 nM. B3 showed a Kd of 13.2 ± 0.9 nM. Work on B4 yielded a Kd of 20.6 ± 1.6 nM. Binder B5 has a Kd of 15.3 ± 2 nM. In the case of B6, the Kd is reported as 51 ± 11 nM. Work on B7 yielded a Kd of 35 ± 6 nM. Binder B8 has a Kd of 28 ± 4 nM. For B9, the Kd was 23.3 ± 1.8 nM. For B10, the Kd was 3.35 ± 0.12 nM. Binder B11 has a Kd of 37 ± 5 nM. B12 showed a Kd of 11.3 ± 1.3 nM. B13 showed a Kd of 46 ± 7 nM. For B14, the Kd was 8.6 ± 0.5 nM. Binder B15 has a Kd of 42 ± 7 nM. B16 showed a Kd of 100 ± 50 nM. With B17 the Kd was 48 ± 5 nM. For B18, the Kd was 25.8 ± 2 nM. Binder B19 has a Kd of 12.6 ± 0.8 nM. Binder B20 has a Kd of 10.3 ± 0.8 nM. For B21, the Kd was 17.8 ± 2.9 nM. With B22 the Kd was 38 ± 6 nM. For B23, the Kd was 12 ± 0.9 nM. B24 gave a Kd of 77 ± 24 nM. B25 gave a Kd of 82 ± 27 nM. Work on B26 yielded a Kd of 30.7 ± 1.4 nM. With B27 the Kd was 53 ± 8 nM. For B28, the Kd was 7.9 ± 0.9 nM. B29 was tested, and the Kd was 16.1 ± 2.5 nM. Binder B30 has a Kd of 48 ± 7 nM. For B31, the Kd was 18.7 ± 1.5 nM. B32 was tested, and the Kd was 34 ± 6 nM. For B33, the Kd was 23 ± 4 nM. B34 showed a Kd of 19.9 ± 2.5 nM.

From paper PMC10786891, “Massively parallel profiling of RNA-targeting CRISPR-Cas13d”
